# Data reported in the nanobody polyreactivity screen of Harvey et al. (2022).
# Test: yeast display, Sf9 membrane polyspecificity reagent, FACS + sequencing; frameworks hold sequencing errors
# Summary of the method: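 In a synthetic yeast display library (Saccharomyces cerevisiae BJ5465), nanobody expression was induced with galactose for 36–48 hours. FACS gates were set low and high (top ~1%) using anti-HA fluorescence for expression and streptavidin fluorescence for binding of the Sf9 membrane reagent. Each polyreactivity label is drawn from the gate of origin.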
row,Sequence,polyreactivity (PSR sort gate)
1,QVQLVESGGGLVQAGGSLRLSCAASGGTFSKNAMGWYRQAPGKERELVADIRSGGSTYYADSVKGRFTISRDNAKNTVYLQMNSLKPEDTAVYYCNADGDVNEYDYWGQGTQVTVSS,low polyreactivity
2,QVQLVESGGGLVQAGGSLRLSCAASGSTFTLYVMGWYRQAPGKERELVAAISRGDTTNYADSVKGRFTISRDNAKNTVYLQMNSLKPEDTAVYYCAATYPTFFYWSKGYERDYWGQGTQVTVSS,low polyreactivity
3,QVQLVESGGGLVQAGGSLRLSCAASGSTFWVYAMGWYRPAPGKERELVAAIDYSGGSTYYADSVKGRFTISRDNAKNTVYLQMNSLKPEDTAVYYGAAGEGQYWLWDGEGEYDYWGQGTQVTVSS,low polyreactivity
4,QVQLVESGGGLVQAGGSLRLSCAASGYTFGTYDMGWYRQAPGNERELGAAISLGGSTNYADSVKGPFTISRDNAKNTVYLQMYSLKPEDTAVYYCAAEVNVGTLLLSVIVEDGDYWGQGTQVTVSS,low polyreactivity
5,QVQLVESGGGLLQAGGSQSLSCAASGIISFSNTMGWYIQAPGKERELVAAIDSGGDDTYYADSVKGRFTISRDNAKNSVYLQMNCLKAEDSAVDYCAKDAFFTEIAIRDQIISHHYYWGHGTQVTVSS,low polyreactivity
6,QVQLVESGGGLVQAGGSLRLSCAASGFIFLHYAMGWYRKAPGKERELVAGIDSSVDSTFYADSVKGRFTISRDNAKNTVYLQMNSLKPEDTAVYYCAKDPDLDYYLYYYWGQGTQVTVSS,low polyreactivity
7,QVQLVESGGGLVQAGGSLRLSCAASGSTFAGYAMGWYRQAPGKERELVATITYSGGSTYYADSVKGRFTISRDNAKNTVYLQKNSLKPEDTAVYYCAKKASYWWGYEYWGQGTQVTVSS,low polyreactivity
8,QVQLVDSAGGLVQAGGTLRLSCADSGFTCSYYAMGWYRQAPGTERELVAAITSGGSTDYADSVKGRFTISRDNEKNTFYLQMHSLKPVDTAVFYCKITPYYAVFYYWGPGTQVTVSS,high polyreactivity
9,QVQLVESGGGLVQAGGSLRLTCAASGSTIVRNAMGWYRQAPGKEREFVAAIDWRGGSTSYADSVKGRFTISRDNAKNTVYLQMHSLKPADTAVYYCAAARRARELRSGQGSTYGNEYWGLGTQVTVSS,high polyreactivity
10,QVQLVESGGGLVQAGGSLRLSCAASGSIFGYEMGWYRQAPGRERELVAAISFSGVSTYYADSVKGRFTISRDNAKNTVYIQMNSLKQEDTAVYNCNAYSDGDEDYWVQGTQVTVSS,low polyreactivity
11,QVQHVESGGGLVQAVGSLRLSFAASGSIFRGYAMGGYRPAPGKERELVAAIRYSGARTYYADSVKGRFTISRDNAKNTVYLQMNSLKPEDTAVYYCNARSYSRTHYDYWGQGTQVTVSS,high polyreactivity
12,QVQLVESGGGLDQAGGSLRLSCAASGRTFGRYAMGWYRQAPGKERELVAAITRSGSSTYYADSVKGRFTISRDNAKNTVYLQMNSLKPEDTAVYYCAAGPRPRPSDYWGQGTQVTVSS,high polyreactivity
13,QVQLVESGGGLVQAGGSLRLSCAASGSIFPPNAMGWYRQAPGKERELVAAISRRGGSTYYADSVKGRFTISRDNAKNTVYLQMNSLKPEDTAVYYCAARGGQMEYWGQGTQVTVSS,high polyreactivity
14,QVQLVESGGGLVQAGGSLRLSCAASGRTFTRYAMGWYRQAPGKERELVAAITSSGRTYYADSVKGRFTISRDNAKNTVYLQMNSLKPEDTAVYYCAKYRANALNYANRGAGDYWGQGTQVTVSS,high polyreactivity
15,QVQLVESGGGLVHAGGSLRLSCAASGITFVRYMGWYRQAPGKERELVAAISASGGSTYYADSVKGRFTISRDNAKNTVYLQLNCLKPEDTAVYYCRFLRVGSLTMDYWGQGSQVTVSS,high polyreactivity
16,QVQLVESGGGLVQAGGSLRLSCAASGFTPGNVMGWYRQAPGKERELVAAISWSGDSTYYADSVKGRFTISRDNAKNTVYLQMNSLKPEDTAVYYCAADGVPGRAVDYEYWGQGTQVTVSS,high polyreactivity
17,QVQLVESGGGLFQAGGSLRLSCDASGRNFSGNAMGMYRQAPGKERELVAAITWSGSSTFYADSVKGLFTISRDYAKNTVYFQMNSLKPEDTAVYYCAVDSSSPVRPHSDEDYWGQGTQVTVSS,low polyreactivity
18,QVQLVESGGGLVQAGGSLRLNCAASGFTFYTYAMGWYRQAPGKERELVAAITSGGGTYYADSVKGRFTISRDNAKYSVYLQMNSLKPEDTAVYYCNRASRRGYYYPYNYWGQGTQVTVSS,high polyreactivity
19,QVQLVESGGGLVQAGGSLRLSCAASGSTFDENAMAWYRQAPGKEWELVAVISDSGGSTYYADSVKGRFTISRDNAKNTVYLQMNSLKPEDTAVYYCAADQSSLDYGNDYWGQGTQVTVSS,low polyreactivity
20,QVQLVESGGGLVQAGGSLRLSCAASGSIFKRNDMGWYRQAPGKERELVAAITWSGGSTYYADSVKGRFTISRDNAKNTVYLQMNSLKPEDTAVYYCNAARDDWYIIKYDYWGQGTQVTVSS,low polyreactivity
21,QVQLVESGGGLVQAGGSLRLSCAASGSTFGPNAMGWYRQAPGKERELVATISFRGGTTYYADSVKGRFTISRDNAKNTVYLQMNSLKPEDTAVYYCAVKVGYVRLLYHYYYWGQGTQVTVSS,high polyreactivity
22,QVQLVESGGGLVQAGGSLRLSCAASGMTFAENAMGWYREAPGKERELVAANSASGGSTYYADSVKGRFTISRDNAKNTVYLQMNSLKPEDTAVFYCATRVAFLWPRRDYDYWGQGTQVTVSS,low polyreactivity

row,Sequence,polyreactivity (PSR sort gate)
1,QVQLVESGGGLVQAGGSLRLSCADSGSTFYRYGMASSRHAPGKERELVAAISWRGGITYYADSVKGRFTISRENAMHTVYLQRNSLKPQDSAVYYCAADGPYTGDGALDYWGQGTQVTVSS,high polyreactivity
2,QVQLVESGGGLVQAGGSLRLSCAASGFIFVYNVMGWYRQAPGKERELVAAITSGGSTNYADSVKGRFTISRDNAKNTVFLKMNSLKPEDTAVYYCNADIYPDWIYLLYGYWGQGTQVTVSS,low polyreactivity
3,QVQLVESGGGLVQAGGSLRLSCAASGSIFFRNVMGWYRQAPGKERELVAAISRSGSTNYADSVKGRFTISRDNAKNTVYLQMNSLKPEDTAVYYCAAQQWRRGRYRDTAGPMFAYDYWGQGTQVTVSS,low polyreactivity
4,QVQLVESGGGLVQAGGSLRLSCAASGLTFAYYDMGWYRQAPGKERELVAAITSGGTTNYADSVKGRFTISRDNAKNTVYLQMNSLKPEDTAVYYCYADYYSRIVGVRIYDYWGQGTQVTVSS,low polyreactivity
5,QVQLVESGGGLVQAGGSLRLSCAASGRTFETNAMGWYRQAPGKERELVAAISRSGGRTYYADSVKGRFTISRDNAKNTVYLQMNSLKPEDTAVYYCAVRQATVTGGGYWGQGTQVTVSS,high polyreactivity
6,QVQLVESGGGLVQAGGSLRLSCAAAGRIFVQYDMGWYRQAAGKERELVAAIIDSGDITYYADSVKGRYTSSRDNAKNTVYLQMNSLKPEDTAVYDCAASAAYYGFYKSVTYDYWGQGTQVTVSS,low polyreactivity
7,QVQLVESGGGLVQAGGSLRLSCAASGRTFYTYAMGWYRQAPGNERELVATISSGGGRTYYADSVKGRFTISPDNAKKTVYLQRNSLNPEDTAVYYCAADKWENRYHAVSDTRPRDYWGQGTQVTVSS,low polyreactivity
8,QVQLVESGGGLVQAGGSLRLSCAASGPIFLRYAIGWYRQAPGKERVLVAVISRSGSSTYYADSVKGRFTISRDNAKNTVYLQMNSLKPEDTAFYHCAAGYSWGYSSQKLRYGYLGQGTQVTVSS,high polyreactivity
9,QVQLVESGGGLVQAGGSLRLSCAASGRIFQTYTMGWYRQAPGKERELVARITGGDSTYYADSVKGRFTISRDNAKITVYLQMNSLKPEDTAVYYCAAEVWSYWGTFNYWGQGTQVTVSS,low polyreactivity
10,QVQHVESGGGLVQAGGSLRFSCAASGFIFIRNGMGWYRQAPGKERELVAAISARGGSTYYADSVKGRFTISRDNAKNTVYLQMNSLKPEDTALYYCAAYRPRKYDYWGQGTQVTVSS,high polyreactivity
11,QVQLVESGGGLVQAGGSLRLSCAASGINFVYYAMGWYRQAPGTEREMVAAISKSSGRTYYADSVKGRFTISRDYAKNTVYLQMNSLKPEDTAVYYCNARYRLSPPPLEYWGQGTQVTVSS,high polyreactivity
12,QVQLVESGGGLGQAGGSLRLSSAASGSIFWFYAMGWYRQAPGKERELVAAITSSGGTDYADSVKGRFSISRDNAKNTVYLQMNSLKPEDSAVYYCAADRIGGPGSYLYDYWGQGTQVTVSS,low polyreactivity
13,QVQLVESGGGLVQAGGSLRLSCAASGSTFGVNAMGWYRQAPGKERELVAAIDADGGITYYADSVKGRFTISRDNAKNTVYLQMNILKPEDTAVYYCAARVAVYFSYGSPYWYEYDYWGQGTQVTVSS,low polyreactivity
14,QLQLVESGGGLVQAGGSLRLSCAASGRIFIYNAMGWYRQAPGKERELVAAINRSGVSTHYADSVKGRFTISRDNAKNTVYLQMNSLKPEDTAVYYCARTVYGARSFDYWGQGTQVTVSS,low polyreactivity
15,QVQLVESGGGLGQAGGSLRLSCAASGYTFRNYVMGWYRPAPGKERQLVATISRGGRTNYADSVKGRFTISRDNAKNTVYLQMNSLKPEDTAVYYCNADWSRVPYRYDYWGQGTQVTVSS,high polyreactivity
16,QVQLEESGGGLVQAGGSLRLSCAASGRIFYWYAMGWYRQAPGKERELVATISSAGTTYYADSVKGRFTISRDNAKNTVYLQMNSLKPEDTAVYYCAVPRVGLHGIGSDYWGQGTQVTVSS,high polyreactivity
17,QVQLVESGGGLVQAGGSLPLSCASYGSIIVGNVMGWYRQAPGKESELVAAMTSSGTSTFYADSVKGRFTNSRDIAKNTVYLQMNSLKPEVTAVYYCAVDLYWSYFNGSLGYRYYFWGQGTQLTVSS,high polyreactivity
18,QVQLVESGGGLVQAGGSLRLSCAPSGLIFYRYAMGWYRQAPGKERELVAAITRGGSTHYADSVKGRFTISRDNAKFTVYLQMNSLKPEDTAVYYCAATFKGRIYRYEYWGQGTQVTVSS,high polyreactivity
19,QVQLVESGGGLVQAGGSLRLSCAASGFIFWLYAMGWYRQAPGKERELVAAISSSGGNTYYADSVKGRFTISRDNAKNTVYLQMNSLKPEDTAVYYCAATYSYGRTYSGYYWGQGTQVTVSS,low polyreactivity
20,QVQLVESGGGLVQAGGSLRLSCDASGSTFYVYAMGWYRQAPGKERELVASINSSTSTNYADSVKGRFTISRDNAKNTVYLQMNSLKPEDTAVYYCAADSRVPEYRSPKNDYWGQGTQVTVSS,low polyreactivity
21,QVQLVESGGGLVQAGGSLRLSCAASGITFELYAMGLYIQAPGKERELVAAISSNGGITFYADSVKGRFTISRDNAKNTVYLQMNSLKTEDTAVYYCAARGYIRGPSKLDYWGQGTQVTVSS,high polyreactivity
